Here are results for three molecules from article PMC11446014, “Human IL-22 receptor-targeted small protein antagonist suppress murine DSS-induced colitis” (Cell Communication and Signaling : CCS, 2024).

What all share (settings): both partners purified
Test [1] concerns the target T1, recombinant human IL-22R1 (rhIL-22 Rα1) (human, UniProt Q8N6P7 16-228).
T1 construct: recombinant human IL-22 receptor alpha (rhIL-22 Rα1); also called commercial IL-22R1; source: bought: R&D Systems
T1 sequence (looked up): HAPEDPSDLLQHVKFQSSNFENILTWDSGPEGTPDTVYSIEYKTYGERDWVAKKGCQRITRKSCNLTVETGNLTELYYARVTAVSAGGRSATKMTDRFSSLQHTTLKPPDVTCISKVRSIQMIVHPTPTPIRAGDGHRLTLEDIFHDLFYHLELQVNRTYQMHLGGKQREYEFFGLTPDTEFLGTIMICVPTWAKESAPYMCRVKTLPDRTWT
Briefly: ELISA; receptor (IL-22R1 or IL-22R1-IgG Fc) coated on MaxiSorp plate; serially diluted IL-22 (Fc chimera or His tag); detection by mouse anti-human IgG (Fc)-HRP or anti-His monoclonal antibody-HRP; BSA wells as control.

The target of test [2] is T2, recombinant human IL-22R1 (rhIL-22 Rα1) (human, UniProt Q8N6P7 16-228).
T2 construct: human interleukin-22 receptor alpha (IL-22R1), recombinant soluble protein; Probably the extracellular part; also called IL-22 receptor alpha; commercial IL-22R1; source: bought: R&D Systems
T2 sequence (looked up): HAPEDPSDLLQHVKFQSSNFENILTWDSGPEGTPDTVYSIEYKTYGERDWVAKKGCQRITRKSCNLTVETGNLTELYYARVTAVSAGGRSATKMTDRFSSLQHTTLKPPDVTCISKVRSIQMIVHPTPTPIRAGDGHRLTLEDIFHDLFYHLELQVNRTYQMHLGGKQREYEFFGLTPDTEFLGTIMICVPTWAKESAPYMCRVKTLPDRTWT
Put plainly: ELISA; competition: human IL-22R1 coated (1 µg/ml) on MaxiSorp; purified ABD-derived variants serially diluted in PBS-T with 1% BSA with 1 nM IL-22 Fc chimera; IL-22-Fc detected by anti-human IgG (Fc) HRP.

Test [3] has as its target T2, recombinant human IL-22R1 (rhIL-22 Rα1). Put plainly: ELISA; IL-22 on IL-22R1 coated on a MaxiSorp 96-well plate (Fig. S1).

B1: recombinant human IL-22 protein, Fc Chimera (Fc fusion, UniProt Q9GZX6 34-179, looked up)
chain: APISSHCRLDKSNFQQPYITNRTFMLAKEASLADNNTDVRLIGEKLFHGVSMSERCYLMKQVLNFTLEEVLFPQSDRFQPYMQEVVPFLARLSNRLSTCHIEGDDLHIQRNVQKLKDTVKKLGESGEIKAIGELDLLFMSLRNACI
notes: human interleukin-22 fused to human IgG Fc; also called IL-22-IgG Fc cytokine; IL-22 (Fc chimera); source: bought: Abcam
For the molecule B1, the binding result in test [1] is recorded as “binds”.

B2: recombinant human IL-22 protein, Fc Chimera (Fc fusion, UniProt Q9GZX6 34-179, looked up)
chain: APISSHCRLDKSNFQQPYITNRTFMLAKEASLADNNTDVRLIGEKLFHGVSMSERCYLMKQVLNFTLEEVLFPQSDRFQPYMQEVVPFLARLSNRLSTCHIEGDDLHIQRNVQKLKDTVKKLGESGEIKAIGELDLLFMSLRNACI
notes: human interleukin-22; also called IL-22-Fc; IL-22 cytokine; source: bought: Abcam
B2: the binding result in test [2] is recorded as “binds”.

B3: human IL-22 (ligand, UniProt Q9GZX6 34-179, looked up)
chain: APISSHCRLDKSNFQQPYITNRTFMLAKEASLADNNTDVRLIGEKLFHGVSMSERCYLMKQVLNFTLEEVLFPQSDRFQPYMQEVVPFLARLSNRLSTCHIEGDDLHIQRNVQKLKDTVKKLGESGEIKAIGELDLLFMSLRNACI
notes: human interleukin-22; it may be m16 or m17; also called hIL-22; IL-22 cytokine; source: bought: Abcam (cell assays)
With B3, the binding result in test [3] is “binds”.
